Test results: patent US20080199443A1

Experiments:
[1] = target: Xenopus GDF5 (wild type, full-length open reading frame expressed from injected mRNA) (Xenopus); experiment: cell-based or functional assay
[2] = system: Xenopus GDF5 with a T7 epitope tag (GDF5-T7)

Xenopus Furin, sequence (P29119 whole entry): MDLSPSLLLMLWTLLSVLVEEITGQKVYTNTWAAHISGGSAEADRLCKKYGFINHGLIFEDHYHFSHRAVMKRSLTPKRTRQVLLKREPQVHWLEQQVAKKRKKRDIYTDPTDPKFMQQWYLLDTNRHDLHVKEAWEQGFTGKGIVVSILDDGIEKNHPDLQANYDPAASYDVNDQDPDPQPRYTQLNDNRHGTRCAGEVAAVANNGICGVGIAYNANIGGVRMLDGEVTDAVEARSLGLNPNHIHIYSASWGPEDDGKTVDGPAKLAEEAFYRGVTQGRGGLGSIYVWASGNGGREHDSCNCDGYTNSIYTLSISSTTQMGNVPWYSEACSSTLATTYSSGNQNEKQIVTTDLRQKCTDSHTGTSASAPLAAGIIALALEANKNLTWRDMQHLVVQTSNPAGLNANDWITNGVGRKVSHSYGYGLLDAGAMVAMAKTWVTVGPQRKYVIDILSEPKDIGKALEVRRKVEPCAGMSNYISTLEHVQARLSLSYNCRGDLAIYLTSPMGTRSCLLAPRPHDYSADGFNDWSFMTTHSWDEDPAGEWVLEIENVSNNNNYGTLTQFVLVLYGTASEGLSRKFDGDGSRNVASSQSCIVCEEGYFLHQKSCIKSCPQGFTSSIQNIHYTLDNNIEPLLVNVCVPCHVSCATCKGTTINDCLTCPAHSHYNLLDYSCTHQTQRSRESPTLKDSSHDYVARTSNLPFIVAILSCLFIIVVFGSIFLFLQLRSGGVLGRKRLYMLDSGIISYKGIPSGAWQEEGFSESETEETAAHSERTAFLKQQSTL

Substance | Average DAI (Dorso-Anterior Index), ventralization of Xenopus embryos after co-injection of mRNAs [1] [DAI] | Average DAI, ventralization of Xenopus embryos; GDF5 mRNA co-injected with Furin and SPC6 mRNAs together [1] [DAI] | proteolytic processing to the mature peptide; anti-T7 immunoblot of Xenopus oocyte supernatants [2]
Xenopus Furin | – | – | XGDF5 and Vg1 mature peptides could be detected only when mRNAs encoding both Furin and SPC6 were co-injected with the growth factor messages
Xenopus SPC6A (enzyme) | 4.9 | 2.4 | –
Xenopus SPC6A | – | – | XGDF5 and Vg1 mature peptides could be detected only when mRNAs encoding both Furin and SPC6 were co-injected with the growth factor messages

Second part, led by results:

Average DAI (Dorso-Anterior Index), ventralization of Xenopus embryos after co-injection of mRNAs [1] [DAI] | Average DAI, ventralization of Xenopus embryos; GDF5 mRNA co-injected with Furin and SPC6 mRNAs together [1] [DAI] | Substance | proteolytic processing to the mature peptide; anti-T7 immunoblot of Xenopus oocyte supernatants [2]
4.8 | – | Xenopus SPC4 (enzyme) | –
4.8 | 2.4 | Xenopus Furin (enzyme) | –
